Substrate in this data set: COC1=C(OC)C(=O)C(CC=C(C)C)=C(C)C1=O
Description: PRODH steady-state kinetics. Type of data set: biochemical, Rhodobacter capsulatus. To be noted: 200 mM proline fixed, 23 °C, 20 mM Tris pH 8.0, 10% glycerol.

B1: RcPutA (Rhodobacter capsulatus SB 1003) (protein)
chain: MTDLSALGPKAKFAPEAEVLQALVAQAALPQPQLDRIAARGADLVARIRAEAKPSLMEHFLAQYGLSTREGVALMCLAEAMLRVPDTATIDALIEDKIAPSDWGKHLGTAASSLVNASTWALMLTGKVLDDGAGGIAGTLRGAMRRLGEPVIRAAVGQAMREMGRQFVLGETIEKALERAEKREAEGYTFSYDMLGEAALTAADAERYRLAYAQAITAIGKAATRGSIAANPGISIKLSALHPRYEVAQEARVMAELVPVVRDLARAAARAGIALHIDAEEQDRLALSLRVMAAVIADPETAGWEGFGAVVQAYGKRAGAAIDALAAMARAAGRRINIRLVKGAYWDAEMKRAQVEGHPGFPLFTSKTGTDVAYICLAAKLFGLNDCIYPQFATHNAHTVAAVLEMAAGRPFEFQRLHGMGARLHDIVLRETGGRCRIYAPVGAHRDLLAYLVRRLLENGANSSFVNQIVNESVPPAEVAACPFAALPTARAPRGLLAPADLFGAGRVNAQGFDLSDPEVLARIEAARDVTLPDAAPIVAGPVSGTLRPVRNPATGAVVAQVTEADAATVALALDAAQVWSAPAATRAAVLCRAADLYEENFGPIFAALAQEAGKTLGDAVSELREAVDFLRYYAAEGAADTRPPRGAVVAISPWNFPLAIFTGQVAAALMAGNAVLAKPAEQTPIIAALAVRLLHQAGVPETALQLLPGDGPTVGAALTRDPRVAGVVFTGSTETAQIIARAMAAHLAPGTPLIAETGGLNAMVVDSTALPEQAVRDVVASAFRSAGQRCSALRCLYVQDDIAPHLIGMLKGAMEELVSGDPARLSTDVGPVIDAEAKAGIETYLAANKARILHRSTAPEGGHFVAPALLQVGGIADLEREIFGPVLHLATFAAEDLPAVIAAINARGYGLTFGLHSRIDARVETVAETIRAGNIYVNRNQIGAVVGSQPFGGEGLSGTGPKAGGPLYLNRFYAPEPVVAVGGWTEAATPILPEARETQLDEIFLPGPTGELNRLTRHQRGPILCLGPGAEAASAQAAAVVALGGQAVQASGAVSPKALETLTPLAGVLWWGAAEMGRAYAQALAVRPGPLVPLITAKPDLAHVAHERHLCVDTTAAGGNAALLAG
As for B1, the Km turned out to be 94 ± 19 µM and the kcat came to 2.0 ± 0.1 s⁻¹.

As usually defined, the Km is the concentration of substrate that gives half-maximal velocity. What is called kcat is the number of substrate molecules converted per active site and unit of time at saturation.
